# B1: TPR t1 (parent)
# chain: GACCAAUCUGCCCUCAGAGCUCGAGAACAUCUUCGGAUGCAGAGGAGGCAGGCUUCGGUGGCGCGAUAGCGCCAACGUCCUCAACCUCCAAUGCAUCCCACCACAUGAUGAUGCCUGAAGAGCCUUGGUUUUUUG
# Variants of: B1
# Assay: polymerase ribozyme fitness, log enrichment relative to wild type (log ratio); higher = more active; in vitro selection for triplet polymerase activity
# In short: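 Mutant libraries of both subunits of a heterodimeric triplet polymerase ribozyme were PCR-built, transcribed, and selected once in triplicate, with frozen incubation at −7 °C and capture of gel-excised extended constructs on streptavidin beads before RT-PCR. Illumina sequencing of input and output libraries was filtered to genotypes with ≥10 input reads and ≥1 read per output. Fitness is the logarithm of genotype enrichment over wild-type enrichment, using inverse-variance-weighted replicate averages. The logarithm is base 2.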
row,Variant,polymerase ribozyme fitness (log ratio)
1,A46U C89U A111U,-5.27
2,A46G A105C,-1.62
3,A46U G52U G71U C123A,-2.41
4,A46U C56U C114A,-2.28
5,G47A G61A C85A C98A,-6.7
6,G45C C89U,-1.92
7,G45A U59G G60A A100U,-2.28
8,A46U G57C A84U C114U,-3.16
9,A46U G48U C76A U78C C82U,-5.9
10,G47A G60A C85G C123U,-3.19
11,A46U C124A,0.552
12,G47A C104A,-2.7
13,G45C G48U G52U C76U,-4.18
14,G45C U130C,-2.26
15,G45U G63A,-2.32
16,G45C G93U A121U,-1.16
17,A46U C53U G69C U87C,-2.13
18,G45U G47A U116C,-5.47
19,A46G A66U C73A C82G,-2.3
20,G47A G60U C101A,-0.894
21,A46U U92C A100U G113C,-4.52

row,Variant,polymerase ribozyme fitness (log ratio)
1,G45C C62U,-1.63
2,G47A C123A,-0.394
3,G47A C123U,-0.261
4,G45U G52A C62U U96G,-2.4
5,G47C C70U C89U,-4.18
6,G47A A90C U112A,-2.17
7,G45U A50U A84U G117C,-7.49
8,A46U G47A G127C,-3.12
9,G47U C98U,-4.36
10,G47A C114A C123G U125A,-2.46
11,G47C C86U A105U A121C,-1.01
12,G45C G69A G117U,-6.59
13,G45U C56A C73G,-2.79
14,G47U G63U C85A,-3.29
15,A46U A90C U133A,-1.74
16,G47A G51A,-4.37
17,G45U A84C C86A G117A,-3.94
18,G47U C53U G120U,-1.25
19,G45C C79A A121G,-0.868
20,A46C C102A G120U C123A,-2.45
21,G45U U106A,-1.76

row,Variant,polymerase ribozyme fitness (log ratio)
1,G45A G69U C99U A111G,-0.775
2,A46U G117A U133G,-2.73
3,G47A C53U,-1.23
4,A46U A121U,0.389
5,G47C A111U,-4.54
6,G45U C104U C124A,-1.14
7,A46U C70G C85U C104G,-7.09
8,G47U C72U C94A,-2.85
9,G47A C73U G117U G135U,-5.34
10,G47U C98U U112A,-3.7
11,G47U G60U U112G,-1.51
12,G47C U54G G58C G69U,1.13
13,G45U U59G U112A,-0.539
14,A46U A66G G77A,-1.99
15,A46U C114U,-2.76
16,G47A C72A C86A U96G G117U,-4.69
17,A46U C62G C88A C124A U133G,-4.11
18,G47U C56U A95U,-1.34
19,G45A G60C,-0.0735
20,G47U G51U G60C,-3.98
21,G47C A50U C72U U81C C114U,-5.1

row,Variant,polymerase ribozyme fitness (log ratio)
1,G47A C82G C123G U125A,-1.38
2,G47A U55A,-0.45
3,G45C C49U C97U A100U A121C U133C,-0.146
4,G47A C49A C124U,0.655
5,A46G A90G,0.482
6,G45U C114U,-3.17
7,G47A C114A,-2.59
8,A46U G61A G110U G120C G122A,-4.73
9,A46G C53A,-0.35
10,G45U G69A,-4.29
11,A46G U59A,-0.58
12,G47U A100C U106A C124G,0.694
13,G47A C101U G122A,-1.99
14,G47A G69U C86A C97U C115U C124G U125C,-0.107
15,A46G A50G U87C,-0.00584
16,G47A C79U,-1.59
17,A46U U59C G93A U130C,-2.04
18,G47A A50U,-1.57
19,G45U G63A U78G G120C,-1.71
20,G47U A100U U116A G117A U132A,-5.1
21,G47U C53A U129G,-2.44

# Reference: the RNAGym collection of RNA variant scans (doi:10.1073/pnas.2313332121)
